Earlier results on one protein are cited in publication PMC4034509, “Overcoming co-product inhibition in the nicotinamide independent asymmetric bioreduction of activated C=C-bonds using flavin-dependent ene-reductases” (Biotechnology and Bioengineering, 2013).

This data set has as its target Tyr206 (UniProt position 206, …). The conditions noted are these: Not stated. The value is discussed in the context of the phenol/phenolate charge-transfer complex with the oxidised flavin in the EBP1 active site.

B1: Estrogen binding protein EBP1 (old yellow enzyme homologue) (Candida albicans) (protein)
chain: MTIESTNSFVVPSDTKLIDVTPLGSTKLFQPIKVGNNVLPQRIAYVPTTRFRASKDHIPSDLQLNYYNARSQYPGTLIITEATFASERGGIDLHVPGIYNDAQAKSWKKINEAIHGNGSFSSVQLWYLGRVANAKDLKDSGLPLIAPSAVYWDENSEKLAKEAGNELRALTEEEIDHIVEVEYPNAAKHALEAGFDYVEIHGAHGYLLDQFLNLASNKRTDKYGCGSIENRARLLLRVVDKLIEVVGANRLALRLSPWASFQGMEIEGEEIHSYILQQLQQRADNGQQLAYISLVEPRVTGIYDVSLKDQQGRSNEFAYKIWKGNFIRAGNYTYDAPEFKTLINDLKNDRSIIGFSRFFTSNPDLVEKLKLGKPLNYYNREEFYKYYNYGYNSYDESEKQVIGKPLA
In general, pKa refers to the pH at which an ionisable group is half protonated. For the protein B1, the pKa is on record as 9.4.
